From the supplement of paper PMC10567573

B1: TRIM63 (parent)
chain: FRCPTCRHEVIMDRHGVYGLQRNL

Variants of: B1
Experiment: protein stability index of a GFP-peptide fusion (GPS, HEK-293T) (PSI 1-6); higher = more stable
Settings: c terminus: a fixed tail appended
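Also: lentivirally expressed fusions sorted by FACS into six bins by GFP to DsRed ratio, PSI derived from sequencing read proportions per bin multiplied by bin number.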

Protein stability index: each site, then its substitutions
V10: C 2.18, H 1.59, N 3.46, F 2.25, I 2.51, K 3.42, D 2.9, G 2.58, A 2.65, M 1.74, E 1.91, L 2.73
R2: G 3.06, S 1.4, E 2.55, L 1.98, C 2.58, Y 1.87, F 3.38, N 1.44, H 2.17, Q 1.84, P 1.56, K 1.77, M 2.58, I 2.79, V 1.86, A 2.96, T 2.05, W 2.42, D 3.32
T5: Q 1.64, A 2.39, C 2.14, W 2.17, G 1.33, Y 2.65, D 3.7, I 2.53, H 3.16, R 1.77, S 1.82, M 2.28, F 2.32, N 3.43, V 3.27, L 1.72, K 2.38
E9: D 1.79, K 1.01, W 2.12, H 2.63, R 1.47, N 2.69, M 2.06, C 2.56, A 2.48, P 1.94, L 2.99, T 2.34, I 1.43, Q 2.63, F 2.14, V 3.23, Y 1.86
C3: A 3.2, D 1.7, L 2.9, S 2.41, V 2.12, F 3.62, G 2.15, Q 1.78, K 1.74, E 2.04, H 4.77, W 2.18, M 4.35, T 1.52, N 3.22, P 1.94, R 1.54, Y 3.25, I 2.6
R7: K 3.15, N 3, H 2.46, Q 2.48, S 2.24, D 3.28, T 2.35, F 2.42, C 2.24, Y 1.94, V 2.93, M 2.42, A 2.63, W 2.12, E 2.09, L 2.13, G 3.57, P 2.36
H8: C 2.52, A 2.6, T 2.31, I 2.11, M 3.58, L 2.39, Y 2.34, N 2.24, E 1.81, P 3.14, S 1.96, D 1.77, Q 1.91, F 2.64, R 1.89, W 1.72, K 2.02
C6: Y 2.37, E 2.61, K 2.15, L 2.16, A 2.57, P 2.89, H 1.91, N 2.38, Q 2.73, F 1.63, I 1.89, D 2.62, R 2.27, W 1.77, G 2.31, V 2.51, T 2.97, M 2.06, S 2.09
P4: Q 3.65, S 2.93, A 2.38, H 3.24, E 2.16, T 3.2, N 3.06, V 2.99, I 3.9, Y 2.74, D 2.24, K 2.67, F 3.47, R 2.18, G 1.38
F1: K 2.91, M 2.72, Y 1.96, E 2.69, T 3.56, L 3.27, P 3.34, N 3.53, W 2.14, I 1.47, G 1.38, S 2.62, V 2.15, H 2.39
